Columns and labels:
Format in all cases: biochemical
[1] = HTP-analysis of supernatants pretreated with base (MUGal hydrolysis); settings: activity of the variant/activity of Rd4BB (SEQ ID NO: 15); challenge at pH 9.65
Method in brief: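 GLA variants were secreted by transformed INVSc1 yeast grown 66-84 h at 30° C. Supernatants were exposed to neutral-to-basic buffers (pH 7.0-9.7) at 37° C for 1-18 h, then assayed with MUGal in acidic citrate/McIlvaine buffer, with fluorescence read after quenching.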

[2] = HTP-analysis of yeast culture supernatants, no challenge (MUGal hydrolysis); settings: activity of the variant/activity of Rd4BB (SEQ ID NO: 15)
Method in brief: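 GLA variants were expressed in INVSc1 yeast grown in SD-Ura broth with glucose at 30° C., and culture supernatants were collected after 66-84 h. Supernatant was mixed with McIlvaine buffer pH 4.8 and MUGal (2 mM stock) in 50 mM citrate, 200 mM KCl, pH 4.6, incubated at 37° C. for 30-180 minutes, then quenched with sodium carbonate.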

[3] = HTP-analysis of supernatants pretreated with acid (MUGal hydrolysis); settings: activity of the variant/activity of Rd4BB (SEQ ID NO: 15); challenge at pH 3.7
Method in brief: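 MUGal hydrolysis was tracked by fluorescence (Ex 355 nm, Em 448 nm) after a 30-180 min reaction at 37° C. in pH 4.8 McIlvaine/citrate buffer, stopped with 1 M sodium carbonate. Beforehand, yeast (INVSc1) culture supernatants carrying GLA variants were held 1-3 h at 37° C. in acidic McIlvaine buffer, pH 3.3-4.3.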

Molecule	Relative Activity of GLA Variants After Challenge at pH 9.65 [1]	Relative Activity of GLA Variants After No Challenge (NC) [2]	Relative Activity of GLA Variants After Challenge at pH 3.7 [3]
478 (protein, Synthetic Polypeptide sequence of Variant No. 478 of mature Human GLA) LDNGLARTPTMGWLHWERFMCNLDCQEEPDSCISEKLFMEMAERMVSEGWKDAGYEYLCIDDCWMAPQRDSEGRLQADPQRFPHGIRQLANYVHSKGLKLGIYADVGNKTCAGFPGSFGYYDIDAQTFADWGVDLLKFDGCYCDSLENLADGYKHMSLALNRTGRSIVYSCEWPLYMWPFQKPNYTEIRQYCNHWRNFADIDDSWKSIKSILDWTSFNQERIVDVAGPGGWNDPDMLVIGNFGLSWNQQVTQMALWAIMAAPLFMSNDLRHISPQAKALLQDKDVIAINQDPLGKQGYQLRQGDNFEVWERPLSGLAWAVAMINRQEIGGPRSYTIAVASLGKGVACNPACFITQLLPVKRKLGFYEWTSRLRSHINPTGTVLLQLENTMQSSLKDLL	+ (0.5 to 1.5 relative activity over Rd4BB (SEQ ID NO: 15))	+ (0.5 to 1.5 relative activity over Rd4BB (SEQ ID NO: 15))	++ (>1.5 to 2.5 relative activity over Rd4BB (SEQ ID NO: 15))
483 (protein, Synthetic Polypeptide sequence of Variant No. 483 of mature Human GLA) LDNGLARTPTMGWLHWERFMCNLDCQEEPDSCISEKLFMEMAERMVSEGWKDAGYEYLCIDDCWMAPQRDSEGRLQADPQRFPHGIRQLANYVHSKGLKLGIYADVGNKTCAGFPGSFGYYDIDAQTFADWGVDLLKFDGCYCDSLENLADGYKHMSLALNRTGRSIVYSCEWPLYMWPFQKPNYTEIRQYCNHWRNFADIDDSWKSIKSILDWTSFNQERIVDVAGPGGWNDPDMLVIGNFGLSWNQQVTQMALWAIMAAPLFMSNDLRHISPQAKALLQDKDVIAINQDPLGKQGYQLRQGDNFEVWERPLSGLAWAVAMINRQEIGGPRSYTIAVASLGKGVACNPACFITQLLPVKRKLGFYEWTSRLRSHINPTGTVLLQLENTMQCSLKDLL	+ (0.5 to 1.5 relative activity over Rd4BB (SEQ ID NO: 15))	+ (0.5 to 1.5 relative activity over Rd4BB (SEQ ID NO: 15))	+ (0.5 to 1.5 relative activity over Rd4BB (SEQ ID NO: 15))
480 (protein, Synthetic Polypeptide sequence of Variant No. 480 of mature Human GLA) LDNGLARTPTMGWLHWERFMCNLDCQEEPDSCISEKLFMEMAERMVSEGWKDAGYEYLCIDDCWMAPQRDSEGRLQADPQRFPHGIRQLANYVHSKGLKLGIYADVGNKTCAGFPGSFGYYDIDAQTFADWGVDLLKFDGCYCDSLENLADGYKHMSLALNRTGRSIVYSCEWPLYMWPFQKPNYTEIRQYCNHWRNFADIDDSWKSIKSILDWTSFNQERIVDVAGPGGWNDPDMLVIGNFGLSWNQQVTQMALWAIMAAPLFMSNDLRHISPQAKALLQDKDVIAINQDPLGKQGYQLRQGDNFEVWERPLSGLAWAVAMINRQEIGGPRSYTIAVASLGKGVACNPACFITQLLPVKRKLGFYEWTSRLRSHINPTGTVLLQLENTRQMSLKDLL	+ (0.5 to 1.5 relative activity over Rd4BB (SEQ ID NO: 15))	+ (0.5 to 1.5 relative activity over Rd4BB (SEQ ID NO: 15))	+ (0.5 to 1.5 relative activity over Rd4BB (SEQ ID NO: 15))
481 (protein, Synthetic Polypeptide sequence of Variant No. 481 of mature Human GLA) LDNGLARTPTMGWLHWERFMCNLDCQEEPDSCISEKLFMEMAERMVSEGWKDAGYEYLCIDDCWMAPQRDSEGRLQADPQRFPHGIRQLANYVHSKGLKLGIYADVGNKTCAGFPGSFGYYDIDAQTFADWGVDLLKFDGCYCDSLENLADGYKHMSLALNRTGRSIVYSCEWPLYMWPFQKPNYTEIRQYCNHWRNFADIDDSWKSIKSILDWTSFNQERIVDVAGPGGWNDPDMLVIGNFGLSWNQQVTQMALWAIMAAPLFMSNDLRHISPQAKALLQDKDVIAINQDPLGKQGYQLRQGDNFEVWERPLSGLAWAVAMINRQEIGGPRSYTIAVASLGKGVACNPACFITQLLPVKRKLGFYEWTSRLRSHINPTGTVLLQLENTGQMSLKDLL	+ (0.5 to 1.5 relative activity over Rd4BB (SEQ ID NO: 15))	+ (0.5 to 1.5 relative activity over Rd4BB (SEQ ID NO: 15))	+ (0.5 to 1.5 relative activity over Rd4BB (SEQ ID NO: 15))
484 (protein, Synthetic Polypeptide sequence of Variant No. 484 of mature Human GLA) LDNGLARTPTMGWLHWERFMCNLDCQEEPDSCISEKLFMEMAERMVSEGWKDAGYEYLCIDDCWMAPQRDSEGRLQADPQRFPHGIRQLANYVHSKGLKLGIYADVGNKTCAGFPGSFGYYDIDAQTFADWGVDLLKFDGCYCDSLENLADGYKHMSLALNRTGRSIVYSCEWPLYMWPFQKPNYTEIRQYCNHWRNFADIDDSWKSIKSILDWTSFNQERIVDVAGPGGWNDPDMLVIGNFGLSWNQQVTQMALWAIMAAPLFMSNDLRHISPQAKALLQDKDVIAINQDPLGKQGYQLRQGDNFEVWERPLSGLAWAVAMINRQEIGGPRSYTIAVASLGKGVACNPACFITQLLPVKRKLGFYEWTSRLRSHINPTGTVLLQLENTMQVSLKDLL	+ (0.5 to 1.5 relative activity over Rd4BB (SEQ ID NO: 15))	+ (0.5 to 1.5 relative activity over Rd4BB (SEQ ID NO: 15))	+ (0.5 to 1.5 relative activity over Rd4BB (SEQ ID NO: 15))
482 (protein, Synthetic Polypeptide sequence of Variant No. 482 of mature Human GLA) LDNGLARTPTMGWLHWERFMCNLDCQEEPDSCISEKLFMEMAERMVSEGWKDAGYEYLCIDDCWMAPQRDSEGRLQADPQRFPHGIRQLANYVHSKGLKLGIYADVGNKTCAGFPGSFGYYDIDAQTFADWGVDLLKFDGCYCDSLENLADGYKHMSLALNRTGRSIVYSCEWPLYMWPFQKPNYTEIRQYCNHWRNFADIDDSWKSIKSILDWTSFNQERIVDVAGPGGWNDPDMLVIGNFGLSWNQQVTQMALWAIMAAPLFMSNDLRHISPQAKALLQDKDVIAINQDPLGKQGYQLRQGDNFEVWERPLSGLAWAVAMINRQEIGGPRSYTIAVASLGKGVACNPACFITQLLPVKRKLGFYEWTSRLRSHINPTGTVLLGLENTMQMSLKDLL	+ (0.5 to 1.5 relative activity over Rd4BB (SEQ ID NO: 15))	+ (0.5 to 1.5 relative activity over Rd4BB (SEQ ID NO: 15))	+ (0.5 to 1.5 relative activity over Rd4BB (SEQ ID NO: 15))
479 (protein, Synthetic Polypeptide sequence of Variant No. 479 of mature Human GLA) LDNGLARTPTMGWLHWERFMCNLDCQEEPDSCISEKLFMEMAERMVSEGWKDAGYEYLCIDDCWMAPQRDSEGRLQADPQRFPHGIRQLANYVHSKGLKLGIYADVGNKTCAGFPGSFGYYDIDAQTFADWGVDLLKFDGCYCDSLENLADGYKHMSLALNRTGRSIVYSCEWPLYMWPFQKPNYTEIRQYCNHWRNFADIDDSWKSIKSILDWTSFNQERIVDVAGPGGWNDPDMLVIGNFGLSWNQQVTQMALWAIMAAPLFMSNDLRHISPQAKALLQDKDVIAINQDPLGKQGYQLRQGDNFEVWERPLSGLAWAVAMINRQEIGGPRSYTIAVASLGKGVACNPACFITQLLPVKRKLGFYEWTSRLRSHINPTGTVLLQLENTMQFSLKDLL	+ (0.5 to 1.5 relative activity over Rd4BB (SEQ ID NO: 15))	+ (0.5 to 1.5 relative activity over Rd4BB (SEQ ID NO: 15))	+ (0.5 to 1.5 relative activity over Rd4BB (SEQ ID NO: 15))
485 (protein, Synthetic Polypeptide sequence of Variant No. 485 of mature Human GLA) LDNGLARTPTMGWLHWERFMCNLDCQEEPDSCISEKLFMEMAERMVSEGWKDAGYEYLCIDDCWMAPQRDSEGRLQADPQRFPHGIRQLANYVHSKGLKLGIYADVGNKTCAGFPGSFGYYDIDAQTFADWGVDLLKFDGCYCDSLENLADGYKHMSLALNRTGRSIVYSCEWPLYMWPFQKPNYTEIRQYCNHWRNFADIDDSWKSIKSILDWTSFNQERIVDVAGPGGWNDPDMLVIGNFGLSWNQQVTQMALWAIMAAPLFMSNDLRHISPQAKALLQDKDVIAINQDPLGKQGYQLRQGDNFEVWERPLSGLAWAVAMINRQEIGGPRSYTIAVASLGKGVACNPACFITQLLPVKRKLGFYEWTSRLRSHINPTGTVLLQLENTMQWSLKDLL	+ (0.5 to 1.5 relative activity over Rd4BB (SEQ ID NO: 15))	+ (0.5 to 1.5 relative activity over Rd4BB (SEQ ID NO: 15))	+ (0.5 to 1.5 relative activity over Rd4BB (SEQ ID NO: 15))

Source: US11278600B2, “Human alpha-galactosidase variants” (Codexis, Inc., priority 2014, dated 2022)
